Here are results for 11 molecules from PMC6723713, “Purification, Characterization and Evaluation of Inhibitory Mechanism of ACE Inhibitory Peptides from Pearl Oyster (Pinctada fucata martensii) Meat Protein Hydrolysate” (Marine Drugs, 2019).

For experiment [1], the target named is T1, ACE (Oryctolagus cuniculus, UniProt P12822).
T1 construct: purchased Sigma-Aldrich (Shanghai, China)
T1 sequence (P12822 34-1310): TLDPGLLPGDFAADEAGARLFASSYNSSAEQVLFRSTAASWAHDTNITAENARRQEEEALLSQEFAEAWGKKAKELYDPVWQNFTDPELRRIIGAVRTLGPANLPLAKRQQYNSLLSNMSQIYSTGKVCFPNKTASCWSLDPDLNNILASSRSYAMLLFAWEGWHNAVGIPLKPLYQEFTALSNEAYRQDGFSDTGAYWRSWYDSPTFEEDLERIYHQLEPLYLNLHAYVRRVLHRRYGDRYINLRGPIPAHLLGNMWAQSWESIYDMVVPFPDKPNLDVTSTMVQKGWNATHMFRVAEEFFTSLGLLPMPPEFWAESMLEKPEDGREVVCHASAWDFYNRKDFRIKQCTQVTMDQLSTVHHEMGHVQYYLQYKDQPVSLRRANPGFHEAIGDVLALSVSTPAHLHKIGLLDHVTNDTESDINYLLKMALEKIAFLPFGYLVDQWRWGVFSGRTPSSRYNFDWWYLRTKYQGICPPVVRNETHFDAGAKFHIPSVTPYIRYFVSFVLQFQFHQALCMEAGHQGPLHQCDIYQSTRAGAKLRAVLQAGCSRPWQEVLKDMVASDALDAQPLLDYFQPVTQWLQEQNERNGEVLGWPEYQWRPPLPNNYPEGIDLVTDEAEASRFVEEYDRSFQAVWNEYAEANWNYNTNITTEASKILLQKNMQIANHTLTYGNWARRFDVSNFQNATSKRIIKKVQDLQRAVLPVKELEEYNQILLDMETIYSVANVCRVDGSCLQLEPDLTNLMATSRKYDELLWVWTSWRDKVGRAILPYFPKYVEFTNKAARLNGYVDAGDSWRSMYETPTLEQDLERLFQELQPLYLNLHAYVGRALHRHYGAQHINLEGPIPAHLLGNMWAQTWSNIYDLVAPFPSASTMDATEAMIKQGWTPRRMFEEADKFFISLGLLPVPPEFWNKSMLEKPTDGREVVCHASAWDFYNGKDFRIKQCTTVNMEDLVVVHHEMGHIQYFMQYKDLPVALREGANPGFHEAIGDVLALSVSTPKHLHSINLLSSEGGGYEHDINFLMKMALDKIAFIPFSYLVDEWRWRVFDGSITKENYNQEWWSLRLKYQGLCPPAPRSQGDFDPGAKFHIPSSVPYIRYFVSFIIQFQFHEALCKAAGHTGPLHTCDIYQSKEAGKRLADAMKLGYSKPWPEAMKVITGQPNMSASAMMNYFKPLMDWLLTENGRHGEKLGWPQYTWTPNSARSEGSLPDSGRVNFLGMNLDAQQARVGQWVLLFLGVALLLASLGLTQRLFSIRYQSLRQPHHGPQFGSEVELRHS
The settings on record: cited from earlier work. An excerpt:
Table 2 Summary of ACE inhibitory peptides having similar structure with purified peptides. | column: IC50 (μM) || Table 3 Inhibition pattern of ACE inhibitory peptides derived from marine products. | column: Inhibition Pattern; IC50 (μM)

The target of experiment [2] is T2, Angiotensin I converting enzyme (UniProt P12822).
T2 sequence: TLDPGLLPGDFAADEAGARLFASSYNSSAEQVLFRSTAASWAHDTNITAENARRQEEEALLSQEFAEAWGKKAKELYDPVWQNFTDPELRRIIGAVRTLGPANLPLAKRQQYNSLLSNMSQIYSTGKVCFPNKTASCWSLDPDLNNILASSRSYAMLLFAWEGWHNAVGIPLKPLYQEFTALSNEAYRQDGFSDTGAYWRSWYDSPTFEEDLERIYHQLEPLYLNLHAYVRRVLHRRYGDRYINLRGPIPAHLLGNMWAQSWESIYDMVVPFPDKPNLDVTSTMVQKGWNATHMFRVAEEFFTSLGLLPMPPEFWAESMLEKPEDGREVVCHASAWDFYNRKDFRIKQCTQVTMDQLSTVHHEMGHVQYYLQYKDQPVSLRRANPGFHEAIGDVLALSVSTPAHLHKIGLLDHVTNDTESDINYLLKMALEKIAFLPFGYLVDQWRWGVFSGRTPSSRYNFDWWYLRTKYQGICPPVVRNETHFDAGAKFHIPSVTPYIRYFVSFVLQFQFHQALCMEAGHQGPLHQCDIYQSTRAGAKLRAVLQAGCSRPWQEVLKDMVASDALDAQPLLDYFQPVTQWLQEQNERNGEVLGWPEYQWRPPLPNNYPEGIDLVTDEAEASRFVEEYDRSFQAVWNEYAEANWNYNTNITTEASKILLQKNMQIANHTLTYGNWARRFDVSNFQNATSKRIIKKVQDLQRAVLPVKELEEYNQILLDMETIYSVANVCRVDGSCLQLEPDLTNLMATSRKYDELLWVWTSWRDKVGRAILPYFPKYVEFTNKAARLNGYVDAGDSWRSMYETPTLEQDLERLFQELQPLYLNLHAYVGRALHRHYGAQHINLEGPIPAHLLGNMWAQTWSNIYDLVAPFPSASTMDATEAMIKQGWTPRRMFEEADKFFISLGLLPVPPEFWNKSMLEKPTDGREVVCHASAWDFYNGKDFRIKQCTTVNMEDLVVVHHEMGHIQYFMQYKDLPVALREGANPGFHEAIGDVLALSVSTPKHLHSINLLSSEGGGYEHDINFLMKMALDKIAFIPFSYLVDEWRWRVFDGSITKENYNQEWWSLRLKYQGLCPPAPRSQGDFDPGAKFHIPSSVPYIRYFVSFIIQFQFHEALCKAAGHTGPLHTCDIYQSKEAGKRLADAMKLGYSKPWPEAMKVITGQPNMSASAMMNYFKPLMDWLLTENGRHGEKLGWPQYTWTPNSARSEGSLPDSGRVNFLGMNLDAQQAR

Experiment [3] deals with T2, Angiotensin I converting enzyme. The source holds these as a separate data set.

Where two headings read alike, the source gives them in different places.

As to CRQHTLGHNT-QTSIAQ (CRQHTLGHNTQTSIAQ), in experiment [1] (ref [32]), the IC50 is 80 µM.
As for VELYP, in experiment [1] (ref [34]), the IC50 is 5.22 µM and the “Inhibition Pattern” value is “Non-competitive”.
VWDPPKFD: in experiment [1] (ref [31]), the IC50 was 9.1 µM and the “Inhibition Pattern” value was “Non-competitive”.
IWHHT: in experiment [1] (ref [28]), the IC50 is 5.1 µM.
Consider EVSQGRP, for which, in experiment [1] (ref [32]), the IC50 was 50 µM and the “Inhibition Pattern” value is “Mixed inhibition”.
For the molecule VWYHT, the IC50 in experiment [1] (ref [28]) was 28.3 µM.
Consider FEDYVPLSCF, for which, in experiment [1] (ref [31]), the IC50 was 10.8 µM and the “Inhibition Pattern” value was “Mixed inhibition”.
Consider GDLGKTTTVSN-WSPPKYKDTP, for which, in experiment [1] (ref [33]), the “Inhibition Pattern” value is given as “Non-competitive”.
Turning to GWAP, the IC50 in experiment [1] (ref [28]) is 3.86 µM.

B1: His-Leu-His-Thr, synthesized (peptide)
peptide: HLHT
For B1, the IC50 of ACE inhibitory activity (enzyme activity on HHL), synthesized peptide in experiment [2] is 452 µM.

B2: His-Leu-His-Thr, purified from pearl oyster meat protein hydrolysate (fraction F51) (peptide)
peptide: HLHT
Regarding B2, the IC50 of ACE inhibitory activity (enzyme activity on HHL), peptide purified from POMPH in experiment [2] came to 458 µM. The ACE inhibitory activity (%) of fraction F51 at a protein concentration of 0.54 mg/mL in experiment [3] was 64.7%.
